Source: patent EP4663654A1 (Hangzhou Sciwind Biosciences Co., Ltd., dated 2025)
Starred links: 1 amine or outer side, 2 acyl side, 3 side chain; linkers in the order of their positions; H or OH if unused. Non-standard residues stand in square brackets, D forms with d. *: point of attachment. C20 diacid = O=C(O)CCCCCCCCCCCCCCCCCCC(=O)*; γGlu = O=C(O)[C@H](CCC(=O)[*:2])N[*:1]; Hyp = O=C(O)[C@@H]1C[C@@H](O)CN1

T1: human amylin receptor (AMY3) on CHO-K1/Ga15/AMY3 amylin receptor/CRE-luc cells (human, UniProt P30988 25-474; O60896 24-148)
T1 sequence (looked up) 1: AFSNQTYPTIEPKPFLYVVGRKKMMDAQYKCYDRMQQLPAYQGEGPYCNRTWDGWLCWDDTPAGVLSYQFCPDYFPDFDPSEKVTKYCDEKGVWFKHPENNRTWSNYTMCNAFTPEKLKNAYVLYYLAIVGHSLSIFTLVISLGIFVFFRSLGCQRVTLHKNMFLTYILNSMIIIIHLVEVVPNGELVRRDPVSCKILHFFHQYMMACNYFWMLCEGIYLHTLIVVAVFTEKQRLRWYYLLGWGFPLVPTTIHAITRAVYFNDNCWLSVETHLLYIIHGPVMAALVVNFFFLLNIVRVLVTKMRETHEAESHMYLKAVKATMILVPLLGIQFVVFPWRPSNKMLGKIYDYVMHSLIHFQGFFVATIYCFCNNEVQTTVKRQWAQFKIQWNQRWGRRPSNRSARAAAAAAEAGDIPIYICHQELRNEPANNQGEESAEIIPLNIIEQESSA
T1 sequence (looked up) 2: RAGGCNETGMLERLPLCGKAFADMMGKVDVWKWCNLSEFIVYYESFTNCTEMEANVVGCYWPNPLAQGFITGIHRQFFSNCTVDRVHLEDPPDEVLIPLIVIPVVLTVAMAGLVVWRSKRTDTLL

B1: polypeptide derivative M7 (peptide)
peptide: {C20 diacid-γGlu}-ASQLSTAVTQRLADFLRHSSNNLKPILPPTNVGSNT[Hyp]-NH2
SMILES: CC[C@H](C)[C@H](NC(=O)[C@@H]1CCCN1C(=O)[C@H](CCCCN)NC(=O)[C@H](CC(C)C)NC(=O)[C@H](CC(N)=O)NC(=O)[C@H](CC(N)=O)NC(=O)[C@H](CO)NC(=O)[C@H](CO)NC(=O)[C@H](Cc1c[nH]cn1)NC(=O)[C@H](CCCNC(=N)N)NC(=O)[C@H](CC(C)C)NC(=O)[C@H](Cc1ccccc1)NC(=O)[C@H](CC(=O)O)NC(=O)[C@H](C)NC(=O)[C@H](CC(C)C)NC(=O)[C@H](CCCNC(=N)N)NC(=O)[C@H](CCC(N)=O)NC(=O)[C@@H](NC(=O)[C@@H](NC(=O)[C@H](C)NC(=O)[C@@H](NC(=O)[C@H](CO)NC(=O)[C@H](CC(C)C)NC(=O)[C@H](CCC(N)=O)NC(=O)[C@H](CO)NC(=O)[C@H](C)NC(=O)CC[C@H](NC(=O)CCCCCCCCCCCCCCCCCCC(=O)O)C(=O)O)[C@@H](C)O)C(C)C)[C@@H](C)O)C(=O)N[C@@H](CC(C)C)C(=O)N1CCC[C@H]1C(=O)N1CCC[C@H]1C(=O)N[C@H](C(=O)N[C@@H](CC(N)=O)C(=O)N[C@H](C(=O)NCC(=O)N[C@@H](CO)C(=O)N[C@@H](CC(N)=O)C(=O)N[C@H](C(=O)N1C[C@H](O)C[C@H]1C(N)=O)[C@@H](C)O)C(C)C)[C@@H](C)O
B2: polypeptide derivative M11 (peptide)
peptide: {C20 diacid}-EASQLSTAATQRLADFLRHFTDRDRDILPPTNVGSNTP-NH2
SMILES: CC[C@H](C)[C@H](NC(=O)[C@H](CC(=O)O)NC(=O)[C@H](CCCNC(=N)N)NC(=O)[C@H](CC(=O)O)NC(=O)[C@H](CCCNC(=N)N)NC(=O)[C@H](CC(=O)O)NC(=O)[C@@H](NC(=O)[C@H](Cc1ccccc1)NC(=O)[C@H](Cc1c[nH]cn1)NC(=O)[C@H](CCCNC(=N)N)NC(=O)[C@H](CC(C)C)NC(=O)[C@H](Cc1ccccc1)NC(=O)[C@H](CC(=O)O)NC(=O)[C@H](C)NC(=O)[C@H](CC(C)C)NC(=O)[C@H](CCCNC(=N)N)NC(=O)[C@H](CCC(N)=O)NC(=O)[C@@H](NC(=O)[C@H](C)NC(=O)[C@H](C)NC(=O)[C@@H](NC(=O)[C@H](CO)NC(=O)[C@H](CC(C)C)NC(=O)[C@H](CCC(N)=O)NC(=O)[C@H](CO)NC(=O)[C@H](C)NC(=O)[C@H](CCC(=O)O)NC(=O)CCCCCCCCCCCCCCCCCCC(=O)O)[C@@H](C)O)[C@@H](C)O)[C@@H](C)O)C(=O)N[C@@H](CC(C)C)C(=O)N1CCC[C@H]1C(=O)N1CCC[C@H]1C(=O)N[C@H](C(=O)N[C@@H](CC(N)=O)C(=O)N[C@H](C(=O)NCC(=O)N[C@@H](CO)C(=O)N[C@@H](CC(N)=O)C(=O)N[C@H](C(=O)N1CCC[C@H]1C(N)=O)[C@@H](C)O)C(C)C)[C@@H](C)O
B3: polypeptide derivative M6 (peptide)
peptide: {C20 diacid-γGlu}-ASQLSTAATQRLADFLRHFTDRDRDILPPTNVGSNTP-NH2
SMILES: CC[C@H](C)[C@H](NC(=O)[C@H](CC(=O)O)NC(=O)[C@H](CCCNC(=N)N)NC(=O)[C@H](CC(=O)O)NC(=O)[C@H](CCCNC(=N)N)NC(=O)[C@H](CC(=O)O)NC(=O)[C@@H](NC(=O)[C@H](Cc1ccccc1)NC(=O)[C@H](Cc1c[nH]cn1)NC(=O)[C@H](CCCNC(=N)N)NC(=O)[C@H](CC(C)C)NC(=O)[C@H](Cc1ccccc1)NC(=O)[C@H](CC(=O)O)NC(=O)[C@H](C)NC(=O)[C@H](CC(C)C)NC(=O)[C@H](CCCNC(=N)N)NC(=O)[C@H](CCC(N)=O)NC(=O)[C@@H](NC(=O)[C@H](C)NC(=O)[C@H](C)NC(=O)[C@@H](NC(=O)[C@H](CO)NC(=O)[C@H](CC(C)C)NC(=O)[C@H](CCC(N)=O)NC(=O)[C@H](CO)NC(=O)[C@H](C)NC(=O)CC[C@H](NC(=O)CCCCCCCCCCCCCCCCCCC(=O)O)C(=O)O)[C@@H](C)O)[C@@H](C)O)[C@@H](C)O)C(=O)N[C@@H](CC(C)C)C(=O)N1CCC[C@H]1C(=O)N1CCC[C@H]1C(=O)N[C@H](C(=O)N[C@@H](CC(N)=O)C(=O)N[C@H](C(=O)NCC(=O)N[C@@H](CO)C(=O)N[C@@H](CC(N)=O)C(=O)N[C@H](C(=O)N1CCC[C@H]1C(N)=O)[C@@H](C)O)C(C)C)[C@@H](C)O
B4: polypeptide derivative M9 (peptide)
peptide: {C20 diacid-γGlu}-ASQLSTAVLQRLADFLRHSSNNLKPILPPTNVGSNT[Hyp]-NH2
SMILES: CC[C@H](C)[C@H](NC(=O)[C@@H]1CCCN1C(=O)[C@H](CCCCN)NC(=O)[C@H](CC(C)C)NC(=O)[C@H](CC(N)=O)NC(=O)[C@H](CC(N)=O)NC(=O)[C@H](CO)NC(=O)[C@H](CO)NC(=O)[C@H](Cc1c[nH]cn1)NC(=O)[C@H](CCCNC(=N)N)NC(=O)[C@H](CC(C)C)NC(=O)[C@H](Cc1ccccc1)NC(=O)[C@H](CC(=O)O)NC(=O)[C@H](C)NC(=O)[C@H](CC(C)C)NC(=O)[C@H](CCCNC(=N)N)NC(=O)[C@H](CCC(N)=O)NC(=O)[C@H](CC(C)C)NC(=O)[C@@H](NC(=O)[C@H](C)NC(=O)[C@@H](NC(=O)[C@H](CO)NC(=O)[C@H](CC(C)C)NC(=O)[C@H](CCC(N)=O)NC(=O)[C@H](CO)NC(=O)[C@H](C)NC(=O)CC[C@H](NC(=O)CCCCCCCCCCCCCCCCCCC(=O)O)C(=O)O)[C@@H](C)O)C(C)C)C(=O)N[C@@H](CC(C)C)C(=O)N1CCC[C@H]1C(=O)N1CCC[C@H]1C(=O)N[C@H](C(=O)N[C@@H](CC(N)=O)C(=O)N[C@H](C(=O)NCC(=O)N[C@@H](CO)C(=O)N[C@@H](CC(N)=O)C(=O)N[C@H](C(=O)N1C[C@H](O)C[C@H]1C(N)=O)[C@@H](C)O)C(C)C)[C@@H](C)O
B5: polypeptide derivative M8 (peptide)
peptide: {C20 diacid-γGlu}-ASQLSTAVTQRLADFLRHFTDRDRDILPPTNVGSNTP-NH2
SMILES: CC[C@H](C)[C@H](NC(=O)[C@H](CC(=O)O)NC(=O)[C@H](CCCNC(=N)N)NC(=O)[C@H](CC(=O)O)NC(=O)[C@H](CCCNC(=N)N)NC(=O)[C@H](CC(=O)O)NC(=O)[C@@H](NC(=O)[C@H](Cc1ccccc1)NC(=O)[C@H](Cc1c[nH]cn1)NC(=O)[C@H](CCCNC(=N)N)NC(=O)[C@H](CC(C)C)NC(=O)[C@H](Cc1ccccc1)NC(=O)[C@H](CC(=O)O)NC(=O)[C@H](C)NC(=O)[C@H](CC(C)C)NC(=O)[C@H](CCCNC(=N)N)NC(=O)[C@H](CCC(N)=O)NC(=O)[C@@H](NC(=O)[C@@H](NC(=O)[C@H](C)NC(=O)[C@@H](NC(=O)[C@H](CO)NC(=O)[C@H](CC(C)C)NC(=O)[C@H](CCC(N)=O)NC(=O)[C@H](CO)NC(=O)[C@H](C)NC(=O)CC[C@H](NC(=O)CCCCCCCCCCCCCCCCCCC(=O)O)C(=O)O)[C@@H](C)O)C(C)C)[C@@H](C)O)[C@@H](C)O)C(=O)N[C@@H](CC(C)C)C(=O)N1CCC[C@H]1C(=O)N1CCC[C@H]1C(=O)N[C@H](C(=O)N[C@@H](CC(N)=O)C(=O)N[C@H](C(=O)NCC(=O)N[C@@H](CO)C(=O)N[C@@H](CC(N)=O)C(=O)N[C@H](C(=O)N1CCC[C@H]1C(N)=O)[C@@H](C)O)C(C)C)[C@@H](C)O

target: T1, human amylin receptor (AMY3) on …; experiment: cell-based or functional assay

In order of falling “EC50/nM, CRE-luciferase reporter in amylin receptor/CRE-luc CHO cells” value:
1. B1  0.066 nM
2. B5  0.049 nM
3. B3  0.042 nM
4. B4  0.026 nM
5. B2  0.004 nM

In order of falling “Relative activity (the EC50 ratio of Cagrilintide to the compound)” value:
1. B2  110%
2. B4  100%
3. B3  62%
4. B5  53%
5. B1  39%
